Measurements: patent US20260000752A1 (AKSTON BIOSCIENCES, published 2026)

B1: human Fc(gamma)RIIIb (receptor)
chain: GMRTEDLPKAVVFLEPQWYSVLEKDSVTLKCQGAYSPEDNSTQWFHNENLISSQASSYFIDAATVNDSGEYRCQTNLSTLSDPVQLEVHIGWLLLQAPRWVFKEEDPIHLRCHSWKNTALHKVTYLQNGKDRKYFHHNSDFHIPKATLKDSGSYFCRGLVGSKNVSSETVNITITQGLAVSTIS
B2: recombinant human Fc(gamma)RIIb, biotinylated (R&D Systems) (receptor)
chain: APPKAVLKLEPQWINVLQEDSVTLTCRGTHSPESDSIQWFHNGNLIPTHTQPSYRFKANNNDSGEYTCQTGQTSLSDPVHLTVLSEWLVLQTPHLEFQEGETIVLRCHSWKDKPLVKVTFFQNGKSKKFSRSDPNFSIPQANHSHSGDYHCTGNIGYTLYSSKPVTITVQAP
B3: recombinant human Fc(gamma)RI, biotinylated (R&D Systems) (receptor, UniProt P12314 16-288, looked up)
chain: QVDTTKAVITLQPPWVSVFQEETVTLHCEVLHLPGSSSTQWFLNGTATQTSTPSYRITSASVNDSGEYRCQRGLSGRSDPIQLEIHRGWLLLQVSSRVFTEGEPLALRCHAWKDKLVYNVLYYRNGKAFKFFHWNSNLTILKTNISHNGTYHCSGMGKHRYTSAGISVTVKELFPAPVLNASVTSPLLEGNLVTLSCETKLLLQRPGLQLYFSFYMGSKTLRGRNTSSEYQILTARREDSGLYWCEAATEDGNVLKRSPELELQVLGLQLPTP
B4: recombinant human Fc(gamma)RIIa, biotinylated (R&D Systems) (receptor)
chain: AAPPKAVLKLEPPWINVLQEDSVTLTCQGARSPESDSIQWFHNGNLIPTHTQPSYRFKANNNDSGEYTCQTGQTSLSDPVHLTVLSEWLVLQTPHLEFQEGETIMLRCHSWKDKPLVKVTFFQNGKSQKFSHLDPTFSIPQANHSHSGDYHCTGNIGYTLFSSKPVTITVQVPSMGSSSPMGI

Target: SARS-CoV-2-RBD-hIgG-Fc fusion protein of SEQ ID NO: 19

| Binder | EC50 |
| --- | --- |
| B1 | 11.7 µg/mL |
| B2 | 2.05 µg/mL |
| B3 | 0.0339 µg/mL |
| B4 | 2.28 µg/mL |
